Results as given in patent publication US20170184591A1.

Key:
[1] = biological target: EcSkp, biotin conjugate (naked chaperone without fused target) (Escherichia coli) (UniProt P0AEU7); test: asymmetric DAGS ECL, Skp-Bi and FkpA-Ru 10 ng/ml each; sample: pool of anti-HTLV-negative human sera; background signal, duplicate 1
[2] = biological target: EcSkp, biotin conjugate (naked chaperone without fused target) (Escherichia coli) (UniProt P0AEU7); test: asymmetric DAGS ECL, Skp-Bi and FkpA-Ru 10 ng/ml each; sample: pool of anti-HTLV-negative human sera; background signal, duplicate 2
[3] = biological target: EcSkp, biotin conjugate (naked chaperone without fused target) (Escherichia coli) (UniProt P0AEU7); test: asymmetric DAGS ECL, Skp-Bi and FkpA-Ru 250 ng/ml each; sample: pool of anti-HTLV-negative human sera; background signal, duplicate 1
[4] = biological target: EcSkp, biotin conjugate (naked chaperone without fused target) (Escherichia coli) (UniProt P0AEU7); test: asymmetric DAGS ECL, Skp-Bi and FkpA-Ru 250 ng/ml each; sample: pool of anti-HTLV-negative human sera; background signal, duplicate 2
[5] = biological target: EcFkpA, biotin conjugate (naked chaperone without fused target) (Escherichia coli) (UniProt P45523); test: asymmetric DAGS ECL, FkpA-Bi and Skp-Ru 10 ng/ml each; sample: pool of anti-HTLV-negative human sera; background signal, duplicate 1
Chain of UniProt P45523 (P45523 26-270 limits assumed): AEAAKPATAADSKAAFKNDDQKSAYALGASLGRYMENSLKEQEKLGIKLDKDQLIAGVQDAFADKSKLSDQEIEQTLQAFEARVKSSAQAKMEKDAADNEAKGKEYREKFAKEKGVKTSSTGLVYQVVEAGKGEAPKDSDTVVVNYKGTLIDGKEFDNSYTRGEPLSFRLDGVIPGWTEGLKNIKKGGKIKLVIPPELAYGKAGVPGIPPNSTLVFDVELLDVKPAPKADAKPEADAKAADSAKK

[6] = biological target: EcFkpA, biotin conjugate (naked chaperone without fused target) (Escherichia coli) (UniProt P45523); test: asymmetric DAGS ECL, FkpA-Bi and Skp-Ru 10 ng/ml each; sample: pool of anti-HTLV-negative human sera; background signal, duplicate 2
[7] = biological target: EcFkpA, biotin conjugate (naked chaperone without fused target) (Escherichia coli) (UniProt P45523); test: asymmetric DAGS ECL, FkpA-Bi and Skp-Ru 250 ng/ml each; sample: pool of anti-HTLV-negative human sera; background signal, duplicate 1
[8] = biological target: EcFkpA, biotin conjugate (naked chaperone without fused target) (Escherichia coli) (UniProt P45523); test: asymmetric DAGS ECL, FkpA-Bi and Skp-Ru 250 ng/ml each; sample: pool of anti-HTLV-negative human sera; background signal, duplicate 2

Chain of UniProt P0AEU7 (P0AEU7 21-161 limits assumed): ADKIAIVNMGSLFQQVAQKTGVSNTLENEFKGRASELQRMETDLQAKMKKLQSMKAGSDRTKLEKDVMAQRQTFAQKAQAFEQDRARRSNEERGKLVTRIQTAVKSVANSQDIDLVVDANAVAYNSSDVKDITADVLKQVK

Substance | Signal (counts) [1] | Signal (counts) [2] | Signal (counts) [3] | Signal (counts) [4] | Signal (counts) [5] | Signal (counts) [6] | Signal (counts) [7] | Signal (counts) [8]
EcFkpA, ruthenium conjugate (naked chaperone without fused target) (from UniProt P45523 26-270) | 567 counts | 561 counts | 2670 counts | 2760 counts |  |  |  | 
EcSkp, ruthenium conjugate (naked chaperone without fused target) (from UniProt P0AEU7 21-161) |  |  |  |  | 447 counts | 439 counts | 854 counts | 864 counts
